Measurements published in US20220411523A1 (HEFEI HANKEMAB BIOTECHNOLOGY, published 2022).
Read-outs that look alike come from different tables or passages of the source.

How the values were obtained:
[1] = biological target: T1, human 4-1BB full length, on the cell surface (human, UniProt Q07011 24-255); test: FACS, CHO-K1-hu4-1BB cells
T1 construct: also called CHO-K1-hu4-1BB; WT (Human 4-1BB full length, Expi293 transient)

[2] = biological target: T2, human 4-1BB (SEQ ID No.5), coated on the ELISA plate (human, UniProt Q07011 24-186, limits assumed); test: ELISA, coated human 4-1BB
T2 construct: also called CD137
T2 sequence (Q07011 24-186 limits assumed): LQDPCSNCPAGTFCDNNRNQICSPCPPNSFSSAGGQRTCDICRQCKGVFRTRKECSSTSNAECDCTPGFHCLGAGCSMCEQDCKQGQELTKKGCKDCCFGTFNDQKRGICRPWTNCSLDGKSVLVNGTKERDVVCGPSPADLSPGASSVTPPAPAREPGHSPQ

[3] = biological target: T3, monkey 4-1BB (Cy4-1BB) (SEQ ID No.6), coated on the ELISA plate (monkey, UniProt Q07011 24-186 (human entry), limits assumed); test: ELISA, coated monkey 4-1BB
T3 chain: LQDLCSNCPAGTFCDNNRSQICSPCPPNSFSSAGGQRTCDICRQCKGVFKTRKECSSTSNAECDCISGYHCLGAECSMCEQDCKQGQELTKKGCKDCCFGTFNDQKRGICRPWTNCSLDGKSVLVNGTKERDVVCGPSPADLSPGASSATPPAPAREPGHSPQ

[4] = biological target: T4, monkey 4-1BB on the cell membrane surface of CHO-K1 cells (monkey, UniProt Q07011 24-255 (human entry)); test: FACS, CHO-K1-cy4-1BB cells
T4 construct: also called CHO-K1-cy4-1BB
T4 chain: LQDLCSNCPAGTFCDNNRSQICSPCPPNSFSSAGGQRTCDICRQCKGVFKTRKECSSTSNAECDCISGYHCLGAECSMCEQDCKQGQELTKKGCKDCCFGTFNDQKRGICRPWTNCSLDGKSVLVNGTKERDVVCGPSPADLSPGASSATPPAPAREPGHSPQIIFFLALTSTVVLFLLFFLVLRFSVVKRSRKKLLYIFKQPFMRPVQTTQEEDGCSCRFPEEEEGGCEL

[5] = biological target: T1, human 4-1BB full length, on the cell …; test: FACS, CHO-K1-hu4-1BB cells; remark: listed apart in the source
[6] = biological target: T5, h4-1BB-His antigen (Acro company, product number: Q07011-1) (human, UniProt Q07011 24-186); test: BLI (Fortebio), h4-1BB-His
T5 construct: Q07011-1 is printed as a product number; not shown: His tag
T5 sequence (Q07011 24-186, one chain of several): as the sequence (Q07011 24-186 limits assumed) above

[7] = biological target: T1, human 4-1BB full length, on the cell …; test: FACS competition, CHO-K1-hu4-1BB; labelled Bio-4-1BBL 2 µg/ml fixed, competitor varied
[8] = biological target: T1, human 4-1BB full length, on the cell …; test: FACS competition, CHO-K1-hu4-1BB; labelled Bio-Hanke10F4 1.5 µg/ml fixed, competitor varied
[9] = biological target: T1, human 4-1BB full length, on the cell …; test: as above; remark: listed apart in the source
[10] = biological target: T1, human 4-1BB full length, on the cell …; test: FACS (MFI) on cells transiently transfected with human 4-1BB WT, antibody titrated from about 0.04 to 10 µg/ml
[11] = biological target: T6, human 4-1BB N42R, on the cell surface (human, UniProt Q07011 24-255); test: FACS (MFI) on cells transiently transfected with human 4-1BB N42R, antibody titrated from about 0.04 to 10 µg/ml
T6 construct: Point mutant of human 4-1BB on transiently transfected cells

[12] = biological target: T7, human 4-1BB I132R, on the cell surface (human, UniProt Q07011 24-255); test: FACS (MFI) on cells transiently transfected with human 4-1BB I132R, antibody titrated from about 0.04 to 10 µg/ml
T7 construct: Point mutant of human 4-1BB on transiently transfected cells

[13] = biological target: T8, human 4-1BB M101R, on the cell surface (human, UniProt Q07011 24-255); test: FACS (MFI) on cells transiently transfected with human 4-1BB M101R, antibody titrated from about 0.04 to 10 µg/ml
T8 construct: Point mutant of human 4-1BB on transiently transfected cells

B1: HKB6 (antibody, V domains shown)
VH: QVQLKESGPGLVAPSQSLSITCTVSGFSLTTYDISWIRQPPGKGLEWLGVIWTGGGTNYNSTFMSRLSINKDNSKSQVFLKMNSLQTDDTAIYYCVRVDYWGQGTSVTVSS
VL: DVVMTQTPLSLPVSLGDQASISCRSSQSLVHSNGNTYLHWFLQKPGQSPKLLIYKVSNRFPGVPDRFSGSGSGTDFTLKISRVEAEDLGVYFCSQNTHVPWTFGGGTKLEIKR
Q: For B1, which EC50 [1] is on record?
A: The EC50 was 1.8 mg/L.

B2: Hanke10F4 (antibody, human IgG4 S228P, kappa, V domains shown)
VH: QVQLQESGPGLVKPSETLSITCTVSGSSLTSYGVHWVRQPPGKGLEGLGVIWPGGSTNYNSALMSRLTISKDNSKSQVSLKMSSLTAADTAMYYCARVTGTWYFDVWGQGTTVTVSS
VL: DIQMTQSPSSLSASLGDRVTISCSASQGISNYLNWYQQKPDGTVKLLIYYTSTLHSGVPSRFSGSGSGTDFTLTISSLQPEDVATYYCQQYSKLPWTFGGGTKLEIKR
notes: Heavy chain type IgG4, light chain kappa; Humanized from hybridoma antibody 37G10F4, transformed from scFvB60103; also called humanized anti-human 4-1BB antibody Hanke10F4; Hanke10F4 monoclonal antibody
Q: Which EC50 [2] does the source give for B2 here?
A: Its EC50 is 0.0186 mg/L.

Q: And the EC50 [3]?
A: The EC50 was 0.0267 mg/L.

Q: And the EC50 [4]?
A: Its EC50 is 1.81 mg/L.

Q: What about the EC50 [5] of the same binder?
A: The EC50 was 1.77 mg/L.

Q: And the EC50 [1]?
A: Its EC50 is 1.6 mg/L.

Q: And the Kd [6]?
A: Its Kd is 0.0139 µM.

Q: And the koff [6]?
A: Its koff is 0.00241 s⁻¹.

Q: And the kon [6]?
A: The kon was 173000 M⁻¹ s⁻¹.

Q: What about the “FACS signal of Bio-4-1BBL at (B:A) Ratio 0.03906” value [7] of the same binder?
A: Its value is 7700.

Q: And the “FACS signal of Bio-4-1BBL at (B:A) Ratio 0.15625” value [7]?
A: The value was 7460.

Q: And the “FACS signal of Bio-4-1BBL at (B:A) Ratio 0.625” value [7]?
A: Its value is 6920.

Q: And the “FACS signal of Bio-4-1BBL at (B:A) Ratio 2.5” value [7]?
A: The value was 5860.

Q: And the “FACS signal of Bio-4-1BBL at (B:A) Ratio 10” value [7]?
A: Its value is 4310.

Q: And the “FACS signal of Bio-4-1BBL at (B:A) Ratio 40” value [7]?
A: Its value is 3510.

Q: And the “FACS signal of Bio-Hanke10F4 at (B:A) Ratio 0.058593” value [8]?
A: The value was 7260.

Q: What about the “FACS signal of Bio-Hanke10F4 at (B:A) Ratio 0.23437” value [8] of the same binder?
A: Its value is 6840.

Q: What about the “FACS signal of Bio-Hanke10F4 at (B:A) Ratio 0.9375” value [8] of the same binder?
A: Its value is 5000.

Q: What about the “FACS signal of Bio-Hanke10F4 at (B:A) Ratio 3.75” value [8] of the same binder?
A: The value was 1740.

Q: What about the “FACS signal of Bio-Hanke10F4 at (B:A) Ratio 15” value [8] of the same binder?
A: The value was 635.

Q: What about the “FACS signal of Bio-Hanke10F4 at (B:A) Ratio 60” value [8] of the same binder?
A: Its value is 230.

Q: What about the “FACS signal of Bio-Hanke10F4 at (B:A) Ratio 0.05859375” value [9] of the same binder?
A: Its value is 7260.

Q: What about the “FACS signal of Bio-Hanke10F4 at (B:A) Ratio 0.234375” value [9] of the same binder?
A: Its value is 6840.

Q: And the “FACS signal of Bio-Hanke10F4 at (B:A) Ratio 0.9375” value [9]?
A: The value was 5000.

Q: And the “FACS signal of Bio-Hanke10F4 at (B:A) Ratio 3.75” value [9]?
A: The value was 1740.

Q: What about the “FACS signal of Bio-Hanke10F4 at (B:A) Ratio 15” value [9] of the same binder?
A: Its value is 635.

Q: And the “FACS signal of Bio-Hanke10F4 at (B:A) Ratio 60” value [9]?
A: The value was 230.

Q: What about the “EC50 (read off the curve)” value [10] of the same binder?
A: The value was about 0.7 mg/L.

Q: What about the “EC50 (read off the curve)” value [11] of the same binder?
A: The value was about 0.7 mg/L.

Q: What about the “EC50 (read off the curve)” value [12] of the same binder?
A: The value was about 0.7 mg/L.

Q: And the “EC50 (read off the curve)” value [13]?
A: Its value is about 0.7 mg/L.
